# Reference: publication PMC9198812, “Residues located in the primase domain of the bacteriophage T7 primase-helicase are essential for loading the hexameric complex onto DNA” (The Journal of Biological Chemistry, 2022)
# Changes are numbered by the printed parent chain. In names and notes the source's numbering stands.
# B1: bacteriophage T7 primase-helicase gp4, wild type (63 kDa form) (enzyme, UniProt P03692 1-566, looked up)
# chain: MDNSHDSDSVFLYHIPCDNCGSSDGNSLFSDGHTFCYVCEKWTAGNEDTKERASKRKPSGGKPMTYNVWNFGESNGRYSALTARGISKETCQKAGYWIAKVDGVMYQVADYRDQNGNIVSQKVRDKDKNFKTTGSHKSDALFGKHLWNGGKKIVVTEGEIDMLTVMELQDCKYPVVSLGHGASAAKKTCAANYEYFDQFEQIILMFDMDEAGRKAVEEAAQVLPAGKVRVAVLPCKDANECHLNGHDREIMEQVWNAGPWIPDGVVSALSLRERIREHLSSEESVGLLFSGCTGINDKTLGARGGEVIMVTSGSGMGKSTFVRQQALQWGTAMGKKVGLAMLEESVEETAEDLIGLHNRVRLRQSDSLKREIIENGKFDQWFDELFGNDTFHLYDSFAEAETDRLLAKLAYMRSGLGCDVIILDHISIVVSASGESDERKMIDNLMTKLKGFAKSTGVVLVVICHLKNPDKGKAHEEGRPVSITDLRGSGALRQLSDTIIALERNQQGDMPNLVLVRILKCRFTGDTGIAGYMEYNKETGWLEPSSYSGEEESHSESTDWSNDTDF
# notes: bacteriophage T7 gene 4 primase-helicase, full-length 63 kDa form (residues 1-566); also called WT gp4; gp4A
# B2: bacteriophage T7 primase-helicase gp4 Y111A (63 kDa form) (enzyme, UniProt P03692 1-566, looked up)
# chain: B1 chain with Y111A
# notes: bacteriophage T7 gene 4 primase-helicase, 63 kDa form (residues 1-566), with Y111A made by site-directed mutagenesis on pET28-gp4A; also called Y111A gp4; gp4-Y11A [sic]
# Target: the molecule itself
# Assay: mass photometry; self-association, monomers to hexamer; 8.7 nM gp4 (hexamer concentration) in 40 mM Tris-HCl pH 7.5, 150 mM KCl, 10 mM MgCl2, 25 °C, 15 min, with 10 nM 50-nt ssDNA and 1 mM [β,γ-CH2] dTTP; Refeyn OneMP
row,Protein,stoichiometry N
1,B1,6
2,B2,6
